Data published in publication PMC10799422, “A role for the ATP-dependent DNA ligase lig E of Neisseria gonorrhoeae in biofilm formation”.

Biological target: T1, Ngo-Lig E (ATP-dependent DNA ligase Lig E), mature, His-tagged (Neisseria gonorrhoeae MS11, UniProt PDB:8U6X_1 1-279)
T1 sequence: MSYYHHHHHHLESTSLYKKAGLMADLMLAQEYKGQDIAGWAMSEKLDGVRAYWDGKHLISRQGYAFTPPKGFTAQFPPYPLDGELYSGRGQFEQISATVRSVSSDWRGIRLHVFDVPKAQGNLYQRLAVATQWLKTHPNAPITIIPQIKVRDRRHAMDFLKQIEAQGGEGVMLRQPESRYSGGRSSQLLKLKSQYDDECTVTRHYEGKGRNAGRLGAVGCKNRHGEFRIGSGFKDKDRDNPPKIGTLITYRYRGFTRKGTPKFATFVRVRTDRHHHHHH
Assay: X-ray crystallography (2.44 A); 5 mM EDTA; enzyme-adenylate; open non-catalytic conformation, non-specific engagement of unbroken duplex, only 6 bp visible (averaged register); Crystallization: 478.7 uM protein, 1.2 molar excess DNA, 5 mM EDTA, 1 h on ice; crystals in 0.5 M potassium thiocyanate, 0.1 M Bis Tris Propane pH 8.0, 18 C
Conditions: protein: recombinant; tags: C-terminal His (N-terminal His-MBP tag cleaved by TEV); nicked duplex, 3 strands; as printed the 9-mer and 11-mer leave a 1-nt gap (C) opposite the 21-mer; blunt outer ends

B1: nicked 21-mer duplex used for co-crystallization (dsDNA)
DNA 1: ATTGCGACC
DNA 2: CACTATCGGAA
DNA 3: TTCCGATAGTGGGGTCGCAAT
modifications: 5'-phosphate on CACTATCGGAA
binding result: binds
